# From the RNAGym collection of RNA variant scans (doi:10.7554/elife.80360)
# B1: CPEB3 Ribozyme (parent)
# chain: GGGGGCCACAGCAGAAGCGUUCACGUCGCGGCCCCUGUCAGAUUCUGGUGAAUCUGCGAAUUCUGCUGU
# Variants of: B1
# Experiment: self-cleavage, relative activity (ratio to wild type); higher = more cleavage; co-transcriptional
row,Variant,self-cleavage
1,GGGGGCCACAGCAGAAGCGUUCACGUCGCGGCCCCUGUCCGAUUCUGGUGAAUCUGGGAAUUCUGCUGU,0.316
2,GGGGGCCACAGCAGAAGCGUUCACGUCGCGGCCCCUGUCCGAUUCUGGUGAAUCUGAGAAUUCUGCUGU,0.2
3,GGGGGCCACAGCAGAAGCGUUCACGUCGCGGCCCCUGUCCGAUUCUAGUGAAUCUGCGAAUUCUGCUGU,0.791
4,GGGGGCCACAGCAGAAGCGUUCACGUCGCGGCCCCUGUCCGAUUUUGGUGAAUCUGCGAAUUCUGCUGU,0.497
5,GGGGGCCACAGCAGAAGCGUUCACGUCGCGGCCCCUGUCCGAUUAUGGUGAAUCUGCGAAUUCUGCUGU,0.534
6,GGGGGCCACAGCAGAAGCGUUCACGUCGCGGCCCCUGUCCGAUUGUGGUGAAUCUGCGAAUUCUGCUGU,0.531
7,GGGGGCCACAGCAGAAGCGUUCACGUCGCGGCCCCUGUUAGAUUCUGGGGAAUCUGCGAAUUCUGCUGU,0.975
8,GGGGGCCACAGCAGAAGCGUUCACGUCGCGGCCCCUGUUAGAUUCUGGUGAAUCUGCGAAUUCUGCUGC,1.04
9,GGGGGCCACAGCAGAAGCGUUCACGUCGCGGCCCCUGUCCAAUUCUGGUGAAUCUGCGAAUUCUGCUGU,0.333
10,GGGGGCCACAGCAGAAGCGUUCACGUCGCGGCCCCUGUCCCAUUCUGGUGAAUCUGCGAAUUCUGCUGU,0.324
11,GGGGGCCACAGCAGAAGCGUUCACGUCGCGGCCCCUGUUAGAUUCUGGUGAAUCUGCGAAUACUGCUGU,0.702
12,GGGGGCCACAGCAGAAGCGUUCACGUCGCGGCCCCUGUUAGAUUCUGGUGAAUCUGCGAAUGCUGCUGU,0.622
13,GGGGGCCACAGCAGAAGCGUUCACGUCGCGGCCCCUGUUAGAUUCUGGUGAAUCUGCGAAUCCUGCUGU,0.514
14,GGGGGCCACAGCAGAAGCGUUCACGUCGCGGCCCCUGUUAGAUUCUGGUGAAUCUGCGAAUUCCGCUGU,0.699
15,GGGGGCCACAGCAGAAGCGUUCACGUCGCGGCCCCUGUUAGAUUCUGGUGAAUCUGCGAAUUCGGCUGU,0.733
16,GGGGGCCACAGCAGAAGCGUUCACGUCGCGGCCCCUGUCCGAUUCUGGUGAAUCUGCGAAUUCUGAUGU,0.232
17,GGGGGCCACAGCAGAAGCGUUCACGUCGCGGCCCCUGUCCGAUUCUGGUGAAUCUGCGAAUUCUGGUGU,0.36
18,GGGGGCCACAGCAGAAGCGUUCACGUCGCGGCCCCUGUCCGAUUCUGGUGAAUCUGCGAAUUCUGUUGU,0.443
19,GGGGGCCACAGCAGAAGCGUUCACGUCGCGGCCCCUGUCCGAUUCUGGUGAAUCUGCGAAUUUUGCUGU,0.388
20,GGGGGCCACAGCAGAAGCGUUCACGUCGCGGCCCCUGUCCGAUUCUGGUGAAUCUGCGAAUUGUGCUGU,0.315

row,Variant,self-cleavage
1,GGGGGCCACAGCAGAAGCGUUCACGUCGCGGCCCCUGUUAGAUUCUGGUGAAUCGGCGAAUUCUGCUGU,0.661
2,GGGGGCCACAGCAGAAGCGUUCACGUCGCGGCCCCUGUCCGAUUCUGGUGAAUCUGCGAUUUCUGCUGU,0.217
3,GGGGGCCACAGCAGAAGCGUUCACGUCGCGGCCCCUGUCCGGUUCUGGUGAAUCUGCGAAUUCUGCUGU,0.482
4,GGGGGCCACAGCAGAAGCGUUCACGUCGCGGCCCCUGUCCGCUUCUGGUGAAUCUGCGAAUUCUGCUGU,0.26
5,GGGGGCCACAGCAGAAGCGUUCACGUCGCGGCCCCUGUCCGUUUCUGGUGAAUCUGCGAAUUCUGCUGU,0.363
6,GGGGGCCACAGCAGAAGCGUUCACGUCGCGGCCCCUGUCCGAUUCUGGUGAAUCUGCGGAUUCUGCUGU,0.515
7,GGGGGCCACAGCAGAAGCGUUCACGUCGCGGCCCCUGUCCGAUUCUGGUGAAUCUGCGCAUUCUGCUGU,0.346
8,GGGGGCCACAGCAGAAGCGUUCACGUCGCGGCCCCUGUUAGAUUCUGGUGAAGCUGCGAAUUCUGCUGU,0.61
9,GGGGGCCACAGCAGAAGCGUUCACGUCGCGGCCCCUGUUAGAUUCUGGUGAACCUGCGAAUUCUGCUGU,0.382
10,GGGGGCCACAGCAGAAGCGUUCACGUCGCGGCCCCUGUCCGAUUCUGGUGUAUCUGCGAAUUCUGCUGU,0.324
11,GGGGGCCACAGCAGAAGCGUUCACGUCGCGGCCCCUGUCCGAUUCUGGUGGAUCUGCGAAUUCUGCUGU,0.494
12,GGGGGCCACAGCAGAAGCGUUCACGUCGCGGCCCCUGUCCGAUUCUGGUGAAUUUGCGAAUUCUGCUGU,0.523
13,GGGGGCCACAGCAGAAGCGUUCACGUCGCGGCCCCUGUCCGAUUCUGGUGAAUAUGCGAAUUCUGCUGU,0.244
14,GGGGGCCACAGCAGAAGCGUUCACGUCGCGGCCCCUGUUAGAUUCUGGUGAAUCUGCGAACUCUGCUGU,0.435
15,GGGGGCCACAGCAGAAGCGUUCACGUCGCGGCCCCUGUUAGAUUCUGGUGAAUCUGCGAAAUCUGCUGU,0.766
16,GGGGGCCACAGCAGAAGCGUUCACGUCGCGGCCCCUGUCCGAUUCUGGUGAGUCUGCGAAUUCUGCUGU,0.583
17,GGGGGCCACAGCAGAAGCGUUCACGUCGCGGCCCCUGUUAGAUUCUGGUGAAUCUGCGAAUUCUGCCGU,0.882
18,GGGGGCCACAGCAGAAGCGUUCACGUCGCGGCCCCUGUUAGAUUCUGGUGAAUCUGCGAAUUCUGCGGU,0.923
19,GGGGGCCACAGCAGAAGCGUUCACGUCGCGGCCCCUGUUAGAUUCUGGUGAAUCUGCGAAUUCUGCAGU,0.902
